Molecular target: T1, CasEnd-34 (synthetic construct)
T1 chain: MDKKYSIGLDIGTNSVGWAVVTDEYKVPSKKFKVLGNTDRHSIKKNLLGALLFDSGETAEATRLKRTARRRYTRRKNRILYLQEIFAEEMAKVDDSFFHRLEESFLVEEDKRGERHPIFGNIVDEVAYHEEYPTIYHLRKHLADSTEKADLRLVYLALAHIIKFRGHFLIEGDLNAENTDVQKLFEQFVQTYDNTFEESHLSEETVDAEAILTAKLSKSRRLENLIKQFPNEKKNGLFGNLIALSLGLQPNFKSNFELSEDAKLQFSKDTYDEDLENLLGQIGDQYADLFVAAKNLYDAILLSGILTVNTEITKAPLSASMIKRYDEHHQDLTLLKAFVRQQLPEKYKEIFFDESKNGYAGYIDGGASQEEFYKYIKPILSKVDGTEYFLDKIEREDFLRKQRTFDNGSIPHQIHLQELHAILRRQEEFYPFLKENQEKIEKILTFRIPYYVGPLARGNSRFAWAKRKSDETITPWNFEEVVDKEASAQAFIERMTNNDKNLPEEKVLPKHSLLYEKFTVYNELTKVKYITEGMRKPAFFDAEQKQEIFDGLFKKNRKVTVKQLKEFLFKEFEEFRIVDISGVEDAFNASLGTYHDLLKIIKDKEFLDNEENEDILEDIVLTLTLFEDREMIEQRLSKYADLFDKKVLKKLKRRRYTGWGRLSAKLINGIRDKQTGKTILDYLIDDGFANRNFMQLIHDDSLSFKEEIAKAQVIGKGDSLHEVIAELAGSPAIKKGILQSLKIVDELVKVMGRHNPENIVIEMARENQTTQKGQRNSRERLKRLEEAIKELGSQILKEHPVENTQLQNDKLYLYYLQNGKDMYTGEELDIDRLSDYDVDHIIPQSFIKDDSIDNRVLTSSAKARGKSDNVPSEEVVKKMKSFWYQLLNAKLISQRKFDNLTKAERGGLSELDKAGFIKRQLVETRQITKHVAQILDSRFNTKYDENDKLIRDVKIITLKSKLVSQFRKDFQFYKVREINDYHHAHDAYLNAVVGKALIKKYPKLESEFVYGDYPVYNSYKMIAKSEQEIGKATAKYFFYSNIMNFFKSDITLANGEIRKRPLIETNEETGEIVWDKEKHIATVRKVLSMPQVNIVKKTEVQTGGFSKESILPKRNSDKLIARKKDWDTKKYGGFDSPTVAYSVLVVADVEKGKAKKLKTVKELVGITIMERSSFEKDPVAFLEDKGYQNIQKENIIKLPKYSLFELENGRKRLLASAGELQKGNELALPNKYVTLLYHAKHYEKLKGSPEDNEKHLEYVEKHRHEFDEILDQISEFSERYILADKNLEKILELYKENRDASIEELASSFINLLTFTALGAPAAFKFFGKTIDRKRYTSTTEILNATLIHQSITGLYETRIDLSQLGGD
Assay: cell_activity; +++; HEK293T; PAM not stated
Outline: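 Editing activity was scored as the fraction of GFP+ cells on day 4 by flow cytometry. BFP-expressing HEK293T cells (250,000) received by nucleofection 200 ng plasmid for the RT-Cas fusion protein and 200 ng template RNA plasmid designed to convert BFP to GFP.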

B1: BFP-to-GFP template RNA ; BFP reporter protospacer (ssRNA ; dsDNA)
RNA: GCCGAAGCACUGCACGCCGUGUUUUAGAGCUAGAAAUAGCAAGUUAAAAUAAGGCUAGUCCGUUAUCAACUUGAAAAAGUGGCACCGAGUCGGUGCACCCUGACGUACGGCGUGCAGUGCUU
DNA 1: GCCGAAGCACTGCACGCCGT
DNA 2: ACGGCGTGCAGTGCTTCGGC
In the case of B1, the activity is reported as ≥ 100 % of reference.

Reference: patent publication US20250092426, “CAS ENDONUCLEASES AND RELATED METHODS” (Flagship Pioneering Innovations VII, LLC, published 2025)
